Laboratory results published in paper PMC5725786, “Characterization of interactions between hepatitis C virus NS5B polymerase, annexin A2 and RNA – effects on NS5B catalysis and allosteric inhibition”.

Experiments:
[1] = target: Bovine annexin A2 (bovine) (UniProt P04272); test: SPR; AnxA2 or mAnxA2 immobilised on a CM5 chip by amine coupling, NS5B (31 to 500 nM) as analyte; multi cycle with regeneration (2 M NaCl and 2 M MgCl2); 25 °C, HBS-EP pH 7.4 with 70 uM Ca2+ and 1 mM Mg2+; approximate steady state analysis, apparent KD
[2] = target: Bovine annexin A2 engineered variant unable to bind RNA (mAnxA2) (bovine) (UniProt P04272); test: as above
[3] = target: mAnxA2 (Bos taurus (bovine), UniProt P04272 1-339, K308S;K309S;K310S;K313S;Y317S;Q321S); test: SPR; 3-100 nM RNA over immobilized mAnxA2; 70 uM Ca2+, 1 mM Mg2+; HBS-EP: 10 mM HEPES pH 7.4, 150 mM NaCl, 3 mM EDTA, 0.005% Surfactant P20, 70 uM Ca2+, 1 mM Mg2+, 25 °C; settings: protein: recombinant; single strand
[4] = target: T1, AnxA2 (annexin A2, wt) (Bos taurus (bovine), UniProt P04272 1-339); test: SPR; kinetic 1:1 fit (ka 0.99e6 1/Ms, kd 0.002 1/s); 70 uM Ca2+, 1 mM Mg2+; AnxA2 immobilized; HBS-EP: 10 mM HEPES pH 7.4, 150 mM NaCl, 3 mM EDTA, 0.005% Surfactant P20, 70 uM Ca2+, 1 mM Mg2+, 25 °C; settings: protein: recombinant; single strand
[5] = target: T1, AnxA2 (annexin A2, wt); test: SPR; steady-state analysis; 70 uM Ca2+, 1 mM Mg2+; AnxA2 immobilized; HBS-EP: 10 mM HEPES pH 7.4, 150 mM NaCl, 3 mM EDTA, 0.005% Surfactant P20, 70 uM Ca2+, 1 mM Mg2+, 25 °C; settings: protein: recombinant; single strand

Molecule	Kd [1] [nM]	Kd [2] [nM]	binding result [3]	Kd [4] [nM]	Kd [5] [nM]
HCV NS5B polymerase, ectodomain (NS5BΔ21), genotype 1b (enzyme)	30	240			
GGGGAUUG (ssRNA) [8-mer RNA]			no binding	2	8.3
